Biological target: T1, GST (glutathione-S-transferase) (UniProt P08515 1-218 = GST)
T1 construct: Control protein in the GST pull-down
Assay: GST pull-down on glutathione beads, immunoblot with anti-His or anti-MUC1-C
Method: The binding of MUC1 to HSF1 could be direct or indirect, for example, through a third protein. To determine if the interaction between MUC1 and HSF1 is a direct, physical interaction, in vitro binding assays was performed. GST- and GST-STAT3 polypeptides were incubated with purified His-tagged MUC1-CD (similar to GST-HSF1-His-MUC1 experiments described above). The protein mixtures were then incubated with glutathione beads, which bind to the GST proteins and associated binding partners if present. The glutathione bead adsorbates were washed and immunoblotted with antibodies specific for His tags or to MUC1-C (as described above). His-tagged MUC1 was present in GST-STAT3 adsorbates but not GST-adsorbates.

T1 sequence (P08515 whole entry): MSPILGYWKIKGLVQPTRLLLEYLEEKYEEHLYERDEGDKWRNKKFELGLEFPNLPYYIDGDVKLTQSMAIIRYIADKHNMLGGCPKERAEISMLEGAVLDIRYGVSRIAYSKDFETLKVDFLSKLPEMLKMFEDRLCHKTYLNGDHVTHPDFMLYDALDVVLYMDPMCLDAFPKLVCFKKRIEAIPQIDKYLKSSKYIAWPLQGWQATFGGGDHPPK

binding result: no binding
B1: His-tagged MUC1-CD (MUC1 cytoplasmic domain) (other)
chain: CQCRRKNYGQLDIFPARDTYHPMSEYPTYHTHGRYVPPSSTDRSPYEKVSAGNGGSSLSYTNPAVAAASANL
notes: Purified recombinant protein; also called His-MUC1; not shown: His tag
